Data from patent US8410061.

Columns and labels:
[1] = target: patched-1 of C3H10T1/2 cells (endogenous hedgehog receptor) (mouse (cell line C3H10T1/2 is stated to be mouse)) (UniProt Q61115); experiment: cell-based or functional assay
[2] = target: Myc-tagged patched-1 on transiently transfected human embryonic kidney 293 (EBNA-293) cells; experiment: FACS competition with Shh-Ig (5 nM) on 293 cells transfected with Myc-tagged patched-1
Sequence of Myc-tagged patched-1 on transiently transfected human embryonic kidney 293 (EBNA-293) cells (Q61115 whole entry): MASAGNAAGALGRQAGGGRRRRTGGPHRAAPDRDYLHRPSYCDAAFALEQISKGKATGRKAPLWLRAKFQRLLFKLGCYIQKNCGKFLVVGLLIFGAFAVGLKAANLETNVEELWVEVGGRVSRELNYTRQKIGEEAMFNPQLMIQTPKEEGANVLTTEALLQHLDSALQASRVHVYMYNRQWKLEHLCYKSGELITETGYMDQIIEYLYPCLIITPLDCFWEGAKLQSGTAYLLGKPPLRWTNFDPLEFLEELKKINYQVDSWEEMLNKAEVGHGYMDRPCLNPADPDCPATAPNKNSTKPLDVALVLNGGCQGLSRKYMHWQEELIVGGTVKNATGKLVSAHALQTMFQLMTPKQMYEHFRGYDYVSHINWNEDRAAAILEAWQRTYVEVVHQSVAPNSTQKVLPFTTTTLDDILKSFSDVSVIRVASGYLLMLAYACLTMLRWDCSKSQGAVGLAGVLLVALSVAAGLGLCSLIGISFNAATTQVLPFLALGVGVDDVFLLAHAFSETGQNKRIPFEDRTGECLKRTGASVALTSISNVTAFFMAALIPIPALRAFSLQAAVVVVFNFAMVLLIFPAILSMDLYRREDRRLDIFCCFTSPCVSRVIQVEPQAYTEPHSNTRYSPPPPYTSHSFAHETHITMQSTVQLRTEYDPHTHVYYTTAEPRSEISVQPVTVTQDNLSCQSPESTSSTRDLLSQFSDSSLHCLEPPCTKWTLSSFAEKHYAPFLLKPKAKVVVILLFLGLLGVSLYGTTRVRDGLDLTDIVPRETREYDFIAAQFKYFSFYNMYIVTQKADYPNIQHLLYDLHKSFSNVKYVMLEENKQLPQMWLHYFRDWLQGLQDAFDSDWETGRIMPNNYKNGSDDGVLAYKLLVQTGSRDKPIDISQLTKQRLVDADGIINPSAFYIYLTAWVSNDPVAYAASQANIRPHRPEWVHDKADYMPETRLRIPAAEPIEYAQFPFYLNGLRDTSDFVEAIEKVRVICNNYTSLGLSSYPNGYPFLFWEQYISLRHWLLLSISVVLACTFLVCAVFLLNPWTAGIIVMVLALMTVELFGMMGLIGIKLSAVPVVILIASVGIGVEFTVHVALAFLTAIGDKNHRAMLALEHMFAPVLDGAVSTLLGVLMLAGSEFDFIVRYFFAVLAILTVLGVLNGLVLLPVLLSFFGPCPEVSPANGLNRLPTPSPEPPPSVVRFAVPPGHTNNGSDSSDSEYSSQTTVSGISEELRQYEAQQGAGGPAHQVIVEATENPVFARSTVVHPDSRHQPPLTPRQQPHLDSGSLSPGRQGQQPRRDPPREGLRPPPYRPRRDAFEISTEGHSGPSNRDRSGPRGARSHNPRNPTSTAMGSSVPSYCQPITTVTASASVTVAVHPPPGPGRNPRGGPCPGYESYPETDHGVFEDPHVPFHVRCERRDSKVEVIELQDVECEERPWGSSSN

Sequence of patched-1 of C3H10T1/2 cells (endogenous hedgehog receptor) (mouse (cell line C3H10T1/2 is stated to be mouse)) (Q61115 whole entry): as above

Row | block of AP activity induced by mature Shh in C3H10T1/2 cells, IC50 [1] [nM] | IC50 [2] [nM] | Substance | further results
1 | 80 |  | Shh (N-9/C-3), Sonic hedgehog variant lacking … from the N-terminus and SGG from the C-terminus (from UniProt Q15465 33-194) (ligand) | 
2 | 80 |  | Shh (N-5), Sonic hedgehog variant lacking residues CGPGR from the N-terminus (from UniProt Q15465 29-197) (ligand) | 
3 |  | 3.5 | human mature Sonic hedgehog N-terminal domain (from UniProt Q15465 24-197) (ligand) | 
4 |  | 1 | Shh (C1S), Sonic hedgehog N-terminal domain with the N-terminal cysteine replaced by serine (from UniProt Q15465 25-197) (ligand) | block of AP induction by human Shh in C3H10T1/2 cells, IC50 [1]: 500000 nM
5 |  |  | Shh (N-10), Sonic hedgehog variant lacking the first 10 N-terminal amino acids (from UniProt Q15465 34-197) (ligand) | block of AP induction by mature Shh (2.5 ug/ml) in C3H10T1/2 cells, IC50 [1]: 250 nM
